Reference: patent US20240327534A1 (HARPOON THERAPEUTICS, published 2024)
Read-outs that look alike come from different tables or passages of the source.

T1: human BCMA on BCMA expressing cell lines (human, UniProt Q02223 1-184)
T1 sequence: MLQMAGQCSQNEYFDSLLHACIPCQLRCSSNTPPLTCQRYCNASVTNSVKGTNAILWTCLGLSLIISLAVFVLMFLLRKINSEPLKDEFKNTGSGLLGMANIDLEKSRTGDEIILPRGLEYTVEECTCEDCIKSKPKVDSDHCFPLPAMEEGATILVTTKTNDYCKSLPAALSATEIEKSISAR

T2: human BCMA protein (human, UniProt Q02223 1-54, limits assumed)
T2 sequence: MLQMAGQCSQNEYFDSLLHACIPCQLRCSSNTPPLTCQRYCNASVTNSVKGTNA


Assays:
[1] = molecular target: T1, human BCMA on BCMA expressing cell lines; test: cell-based or functional assay
human BCMA protein [2] = molecular target: T2, human BCMA protein; test: affinity of purified protein to human BCMA protein, method not stated
[3] = molecular target: T1, human BCMA on BCMA expressing cell lines; test: cell-based or functional assay; remark: listed apart in the source
human BCMA protein [4] = molecular target: T2, human BCMA protein; test: affinity to human BCMA protein, method not stated
[5] = molecular target: T1, human BCMA on BCMA expressing cell lines; test: cell-based or functional assay; remark: listed apart in the source

Row | TDCC Jeko1 EC50 [1] [nM] | TDCC MOLP-8 EC50 [1] [nM] | TDCC OPM-2 EC50 [1] [nM] | Kd (human BCMA protein [2]) [nM] | TDCC Jeko1 EC50 [3] [nM] | TDCC MOLP-8 EC50 [3] [nM] | TDCC OPM-2 EC50 [3] [nM] | Kd (human BCMA protein [4]) [nM] | TDCC EC50 (EJM cells) [5] [nM] | Binder
1 |  |  |  | 6 | 0.009 | 0.0022 | 0.0056 |  |  | 01F07-M34G TriTAC (other, not shown: large carriers; small tags and cut ends, trispecific; also called 01F01-M34G) VHH: EVQLVESGGGLVQPGRSLTLSCAASTNIFSTSPGGWYRQAPGKQRELVAAIHGFSTIYADSVKGRFTISRDNAKNSIYLQMNSLRPEDTALYYCNKVPWGDYHPGNVYWGQGTQVTVSS
2 |  |  |  |  |  |  |  | 23.3 | 0.0319 | BCMA targeting trispecific protein 02H06 (other, trispecific; not shown: The C-terminal 6xHis tag is left out because it follows these missing domains) VHH: EVQLVESGGGLVQPGRSLTLSCAASTNIRSISPMGWYRQAPGKQRELVAAIHGSSTLYADSVKGRFTISRDNAKNSIYLQMNSLRPEDTALYYCNKVPWGDYHPRNVVWGQGTQVTVSS
3 |  |  |  |  | 0.0053 | 0.0015 | 0.0044 | 4.18 | 0.000702 | BCMA targeting trispecific protein 01F07 (other, not shown: large carriers; small tags and cut ends, trispecific; also called 01F07 TriTAC) VHH: EVQLVESGGGLVQPGRSLTLSCAASTNIFSTSPMGWYRQAPGKQRELVAAIHGFSTIYADSVKGRFTISRDNAKNSIYLQMNSLRPEDTALYYCNKVPWGDYHPGNVYWGQGTQVTVSS
4 |  |  |  |  | 0.015 | 0.0025 | 0.0069 | 6.27 | 0.00191 | BCMA targeting trispecific protein 01G08 (other, not shown: large carriers; small tags and cut ends, trispecific; also called 01G08 TriTAC) VHH: EVQLVESGGGLVQPGRSLTLSCAASTNIQSISPMGWYRQAPGKQRELVAAIHGFETLYADSVKGRFTISRDNAKNSIYLQMNSLRPEDTALYYCNKVPWGDYHPGNVYWGQGTQVTVSS
5 |  |  |  | 5 | 0.011 | 0.0056 | 0.0062 |  |  | 02G02-M34Y TriTAC (other, not shown: large carriers; small tags and cut ends, trispecific) VHH: EVQLVESGGGLVQPGRSLTLSCAASTNIFSITPYGWYRQAPGKQRELVAAIHGASTLYADSVKGRFTISRDNAKNSIYLQMNSLRPEDTALYYCNKVPWGDYHPGNVYWGQGTQVTVSS
6 |  |  |  |  | 0.011 | 0.0028 | 0.0066 | 5.26 | 0.00108 | BCMA targeting trispecific protein 02G02 (other, trispecific; also called 02G02 TriTAC; not shown: anti-albumin domain, anti-CD3 domain and the linkers of the trispecific (TriTAC) format) VHH: EVQLVESGGGLVQPGRSLTLSCAASTNIFSITPMGWYRQAPGKQRELVAAIHGASTLYADSVKGRFTISRDNAKNSIYLQMNSLRPEDTALYYCNKVPWGDYHPGNVYWGQGTQVTVSS
7 |  |  |  |  |  |  |  | 7.12 | 0.00433 | BCMA targeting trispecific protein 02G05 (other, not shown: large carriers; small tags and cut ends, trispecific) VHH: EVQLVESGGGLVQPGRSLTLSCAASTNITSISPMGWYRQAPGKQRELVAAIHGNSTLYADSVKGRFTISRDNAKNSIYLQMNSLRPEDTALYYCNKVPWGDYHPGNVYWGQGTQVTVSS
8 |  |  |  |  |  |  |  | 19.3 | 0.0446 | BCMA targeting trispecific protein 02G07 (other, not shown: large carriers; small tags and cut ends, trispecific) VHH: EVQLVESGGGLVQPGRSLTLSCAASTNIFSITPMGWYRQAPGKQRELVAAIHGESTLYADSVKGRFTISRDNAKNSIYLQMNSLRPEDTALYYCNKVPWGDYHPRDVYWGQGTQVTVSS
9 |  |  |  |  | 0.004 | 0.00094 | 0.0031 | 2.86 | 0.000341 | BCMA targeting trispecific protein 01H08 (other, trispecific; also called 01H08 TriTAC; not shown: the C-terminal His6 follows those missing domains and is left out) VHH: EVQLVESGGGLVQPGRSLTLSCAASTNIMSISPMGWYRQAPGKQRELVAAIHGFSTVYADSVKGRFTISRDNAKNSIYLQMNSLRPEDTALYYCNKVPWGDYHPGNVYWGQGTQVTVSS
10 |  |  |  |  |  |  |  | 6.83 | 0.00288 | BCMA targeting trispecific protein 02H09 (other, not shown: large carriers; small tags and cut ends, trispecific) VHH: EVQLVESGGGLVQPGRSLTLSCAASTNIFSRSPMGWYRQAPGKQRELVAAIHGSSTLYADSVKGRFTISRDNAKNSIYLQMNSLRPEDTALYYCNKVPWGDYHPGNVYWGQGTQVTVSS
11 |  |  |  |  |  |  |  | 20.5 | 0.0238 | BCMA targeting trispecific protein 02G11 (other, not shown: large carriers; small tags and cut ends, trispecific) VHH: EVQLVESGGGLVQPGRSLTLSCAASTNIDSISPMGWYRQAPGKQRELVAAIHGSSTLYADSVKGRFTISRDNAKNSIYLQMNSLRPEDTALYYCNKVPWGDYHPRNVTWGQGTQVTVSS
12 |  |  |  |  | 0.01 | 0.0025 | 0.0073 | 6.75 | 0.00172 | BCMA targeting trispecific protein 02F04 (other, not shown: large carriers; small tags and cut ends, trispecific; also called 02F04 TriTAC) VHH: EVQLVESGGGLVQPGRSLTLSCAASTNIFSSSPMGWYRQAPGKQRELVAAIHGFSTLYADSVKGRFTISRDNAKNSIYLQMNSLRPEDTALYYCNKVPWGDYHPGNVYWGQGTQVTVSS
13 |  |  |  | 7 | 0.012 | 0.004 | 0.0071 |  |  | 02G02-M34G TriTAC (other, not shown: large carriers; small tags and cut ends, trispecific) VHH: EVQLVESGGGLVQPGRSLTLSCAASTNIFSITPGGWYRQAPGKQRELVAAIHGASTLYADSVKGRFTISRDNAKNSIYLQMNSLRPEDTALYYCNKVPWGDYHPGNVYWGQGTQVTVSS
14 |  |  |  | 3 | 0.0056 | 0.0015 | 0.0036 |  |  | 01F07-M34Y TriTAC (other, trispecific; not shown: anti-albumin domain, anti-CD3 domain and the linkers of the TriTAC; the C-terminal His6 that follows them is left out) VHH: EVQLVESGGGLVQPGRSLTLSCAASTNIFSTSPYGWYRQAPGKQRELVAAIHGFSTIYADSVKGRFTISRDNAKNSIYLQMNSLRPEDTALYYCNKVPWGDYHPGNVYWGQGTQVTVSS
15 |  |  |  |  | 0.011 | 0.0033 | 0.012 | 6.53 | 0.00137 | BCMA targeting trispecific protein 02E05 (other, trispecific; also called 02E05 TriTAC; not shown: the C-terminal 6xHis tag follows those domains and is left out) VHH: EVQLVESGGGLVQPGRSLTLSCAASTNIFSRSPMGWYRQAPGKQRELVAAIHGISTLYADSVKGRFTISRDNAKNSIYLQMNSLRPEDTALYYCNKVPWGDYHPGNVYWGQGTQVTVSS
16 |  |  |  |  | 0.0091 | 0.0024 | 0.0074 | 6.31 | 0.00157 | BCMA targeting trispecific protein 02E06 (other, not shown: large carriers; small tags and cut ends, trispecific; also called 02E06 TriTAC) VHH: EVQLVESGGGLVQPGRSLTLSCAASTNIFSDSPMGWYRQAPGKQRELVAAIHGFSTFYADSVKGRFTISRDNAKNSIYLQMNSLRPEDTALYYCNKVPWGDYHPGNVYWGQGTQVTVSS

Further lines, the binder ahead of its results:

Row | Binder | TDCC Jeko1 EC50 [1] [nM] | TDCC MOLP-8 EC50 [1] [nM] | TDCC OPM-2 EC50 [1] [nM] | Kd (human BCMA protein [2]) [nM] | TDCC Jeko1 EC50 [3] [nM] | TDCC MOLP-8 EC50 [3] [nM] | TDCC OPM-2 EC50 [3] [nM] | Kd (human BCMA protein [4]) [nM] | TDCC EC50 (EJM cells) [5] [nM]
17 | BH2T TriTAC (protein, part only; not given: anti-albumin and anti-CD3 domains, part only) chain, part: EVQLVESGGGLVQPGRSLTLSCAASTNIFSISPMGWYRQAPGKQRELVAAIHGFSTLYADSVKGRFTISRDNAKNSIYLQMNSLRPEDTALYYCNKVPWGDYHPRNVYWGQGTQVTVSSHHHHHH | 0.32 | 0.2 | 0.16 |  |  |  |  |  | 
18 | BCMA targeting trispecific protein 02G06 (other, not shown: large carriers; small tags and cut ends, trispecific) VHH: EVQLVESGGGLVQPGRSLTLSCAASTNIFSGSPMGWYRQAPGKQRELVAAIHGNSTLYADSVKGRFTISRDNAKNSIYLQMNSLRPEDTALYYCNKVPWGDYHPGNVYWGQGTQVTVSS |  |  |  |  |  |  |  | 7.5 | 0.00339
19 | BCMA targeting trispecific protein 02H05 (other, trispecific; not shown: The C-terminal 6xHis tag is left out because it follows these missing domains) VHH: EVQLVESGGGLVQPGRSLTLSCAASTNQFSISPMGWYRQAPGKQRELVAAIHGKSTLYADSVKGRFTISRDNAKNSIYLQMNSLRPEDTALYYCNKVPWGDYHPRNVVWGQGTQVTVSS |  |  |  |  |  |  |  | 19.6 | 0.0389
20 | BCMA targeting trispecific protein 02B06 (other, not shown: large carriers; small tags and cut ends, trispecific; also called 02B06 TriTAC) VHH: EVQLVESGGGLVQPGRSLTLSCAASTNIFSNSPMGWYRQAPGKQRELVAAIHGFSTLYADSVKGRFTISRDNAKNSIYLQMNSLRPEDTALYYCNKVPWGDYHPGNVYWGQGTQVTVSS |  |  |  |  | 0.011 | 0.0028 | 0.0097 | 6.77 | 0.00165
21 | BCMA targeting trispecific protein 02G08 (other, not shown: large carriers; small tags and cut ends, trispecific) VHH: EVQLVESGGGLVQPGRSLTLSCAASTNIDSISPMGWYRQAPGKQRELVAAIHGESTLYADSVKGRFTISRDNAKNSIYLQMNSLRPEDTALYYCNKVPWGDYHPRNVTWGQGTQVTVSS |  |  |  |  |  |  |  | 18 | 0.0286
22 | BCMA targeting trispecific protein 02F02 (other, trispecific; also called 02F02 TriTAC; not shown: The C-terminal 6xHis tag is left out because it follows these missing domains) VHH: EVQLVESGGGLVQPGRSLTLSCAASTNIFSKSPMGWYRQAPGKQRELVAAIHGSSTLYADSVKGRFTISRDNAKNSIYLQMNSLRPEDTALYYCNKVPWGDYHPGNVYWGQGTQVTVSS |  |  |  |  | 0.0082 | 0.0035 | 0.01 | 6.73 | 0.00136
23 | BCMA targeting trispecific protein 02H04 (other, trispecific; not shown: the C-terminal 6xHis tag follows those domains and is left out) VHH: EVQLVESGGGLVQPGRSLTLSCAASTNIFSVSPMGWYRQAPGKQRELVAAIHGNSTLYADSVKGRFTISRDNAKNSIYLQMNSLRPEDTALYYCNKVPWGDYHPRNVYWGQGTQVTVSS |  |  |  |  |  |  |  | 31.1 | 0.0599
24 | BCMA targeting trispecific protein 02G09 (other, trispecific; not shown: The C-terminal 6xHis tag is left out because it follows these missing domains) VHH: EVQLVESGGGLVQPGRSLTLSCAASTNIFSDSPMGWYRQAPGKQRELVAAIHGFSTLYADSVKGRFTISRDNAKNSIYLQMNSLRPEDTALYYCNKVPWGDYHPRNVAWGQGTQVTVSS |  |  |  |  |  |  |  | 34.4 | 0.0396
25 | BCMA targeting trispecific protein 02H01 (other, not shown: large carriers; small tags and cut ends, trispecific) VHH: EVQLVESGGGLVQPGRSLTLSCAASTNIFSKSPMGWYRQAPGKQRELVAAIHGSSTLYADSVKGRFTISRDNAKNSIYLQMNSLRPEDTALYYCNKVPWGDYHPRNVYWGQGTQVTVSS |  |  |  |  |  |  |  | 35.6 | 0.0542
26 | BCMA targeting trispecific protein 02H11 (other, trispecific; not shown: the C-terminal 6xHis tag follows those domains and is left out) VHH: EVQLVESGGGLVQPGRSLTLSCAASTNITSISPMGWYRQAPGKQRELVAAIHGESTLYADSVKGRFTISRDNAKNSIYLQMNSLRPEDTALYYCNKVPWGDYHPRNVYWGQGTQVTVSS |  |  |  |  |  |  |  | 27.5 | 0.0775
